Results as given in article PMC9700037.

Molecular target: His6-tev-DPP9 (UniProt Q86TI2)
Test: SEC-MALS; co-eluting SEC fractions of FIIND, DPP9 and free UPA co-expressed in Sf9 and co-purified; 0.5-1.0 mg/ml, Superose 6 increase (10/300) GL, buffer A without glycerol

Chain of His6-tev-DPP9 (Q86TI2 whole entry): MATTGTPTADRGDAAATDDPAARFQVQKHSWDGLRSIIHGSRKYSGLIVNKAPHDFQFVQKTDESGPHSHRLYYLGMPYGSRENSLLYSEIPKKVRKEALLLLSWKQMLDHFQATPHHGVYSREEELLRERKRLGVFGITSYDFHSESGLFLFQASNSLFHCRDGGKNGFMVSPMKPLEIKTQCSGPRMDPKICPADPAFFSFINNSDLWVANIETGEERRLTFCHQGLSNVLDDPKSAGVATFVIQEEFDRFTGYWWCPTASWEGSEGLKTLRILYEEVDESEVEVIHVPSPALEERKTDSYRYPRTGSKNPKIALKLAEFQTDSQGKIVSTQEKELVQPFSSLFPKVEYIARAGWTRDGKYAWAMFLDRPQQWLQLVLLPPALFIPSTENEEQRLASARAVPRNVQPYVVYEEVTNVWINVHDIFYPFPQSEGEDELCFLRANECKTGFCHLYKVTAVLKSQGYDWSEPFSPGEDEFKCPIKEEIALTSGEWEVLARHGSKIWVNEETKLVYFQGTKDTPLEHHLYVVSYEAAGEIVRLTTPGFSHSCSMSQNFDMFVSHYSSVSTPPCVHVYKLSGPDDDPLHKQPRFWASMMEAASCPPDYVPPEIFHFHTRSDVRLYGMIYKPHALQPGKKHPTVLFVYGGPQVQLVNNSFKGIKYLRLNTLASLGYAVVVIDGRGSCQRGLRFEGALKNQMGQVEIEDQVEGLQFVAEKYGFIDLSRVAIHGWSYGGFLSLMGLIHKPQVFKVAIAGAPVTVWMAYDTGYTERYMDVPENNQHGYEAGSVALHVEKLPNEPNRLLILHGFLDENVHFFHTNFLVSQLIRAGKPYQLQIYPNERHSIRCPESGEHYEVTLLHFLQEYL
Chain of free UPA domain (from the SUMO-UPA construct) (domain or fragment) (Q9C000 whole entry, the tested form may be a part): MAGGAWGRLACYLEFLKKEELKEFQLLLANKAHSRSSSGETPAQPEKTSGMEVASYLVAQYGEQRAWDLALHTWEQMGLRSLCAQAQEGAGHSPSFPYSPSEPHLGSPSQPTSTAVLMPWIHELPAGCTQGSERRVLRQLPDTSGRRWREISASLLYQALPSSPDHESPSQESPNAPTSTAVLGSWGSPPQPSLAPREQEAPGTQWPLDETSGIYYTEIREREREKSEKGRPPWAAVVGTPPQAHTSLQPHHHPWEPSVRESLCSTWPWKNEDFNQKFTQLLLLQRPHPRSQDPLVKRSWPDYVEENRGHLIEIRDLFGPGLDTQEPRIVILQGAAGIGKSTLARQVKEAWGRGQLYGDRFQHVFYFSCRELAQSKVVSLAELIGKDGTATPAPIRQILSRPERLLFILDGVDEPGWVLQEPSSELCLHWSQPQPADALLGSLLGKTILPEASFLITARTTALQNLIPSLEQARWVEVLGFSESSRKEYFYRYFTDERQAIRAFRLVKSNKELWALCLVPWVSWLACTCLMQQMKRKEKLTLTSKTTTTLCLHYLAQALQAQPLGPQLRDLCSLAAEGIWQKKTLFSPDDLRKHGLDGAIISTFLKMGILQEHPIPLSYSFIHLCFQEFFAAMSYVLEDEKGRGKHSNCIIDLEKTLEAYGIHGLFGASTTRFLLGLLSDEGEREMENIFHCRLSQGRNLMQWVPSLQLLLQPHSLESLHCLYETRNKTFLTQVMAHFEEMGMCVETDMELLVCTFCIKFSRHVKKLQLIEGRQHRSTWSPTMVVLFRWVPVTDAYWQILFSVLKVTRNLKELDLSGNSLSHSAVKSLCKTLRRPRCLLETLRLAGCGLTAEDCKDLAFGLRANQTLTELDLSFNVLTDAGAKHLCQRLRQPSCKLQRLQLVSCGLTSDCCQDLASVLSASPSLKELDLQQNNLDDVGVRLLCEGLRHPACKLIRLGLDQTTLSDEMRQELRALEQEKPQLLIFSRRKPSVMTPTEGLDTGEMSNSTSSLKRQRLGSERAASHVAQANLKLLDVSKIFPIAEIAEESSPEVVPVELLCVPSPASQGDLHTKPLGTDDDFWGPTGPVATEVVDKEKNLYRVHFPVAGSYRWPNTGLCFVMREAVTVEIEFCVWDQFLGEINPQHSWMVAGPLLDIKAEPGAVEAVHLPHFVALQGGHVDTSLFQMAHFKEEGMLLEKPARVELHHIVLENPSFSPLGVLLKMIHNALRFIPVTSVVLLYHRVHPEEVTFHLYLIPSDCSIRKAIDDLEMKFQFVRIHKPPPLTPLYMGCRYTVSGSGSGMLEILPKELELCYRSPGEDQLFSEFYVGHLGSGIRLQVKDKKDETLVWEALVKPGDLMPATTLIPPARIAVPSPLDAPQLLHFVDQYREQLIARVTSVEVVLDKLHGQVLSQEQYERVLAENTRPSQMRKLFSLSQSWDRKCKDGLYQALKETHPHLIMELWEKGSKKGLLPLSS

Substance: free UPA domain (from the SUMO-UPA construct) (domain or fragment)
- stoichiometry N (UPA per DPP9 dimer): 1
